In the supplement of paper PMC12042874 one finds amyloid nucleation score data, which are given here for 102 substances.

The nature of this series: amyloid nucleation score (Sup35N fusion, yeast selection) (log enrichment); library NNK2; higher = more nucleation; inactive = no reads after selection. The essentials: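 Peptides of 20 random codons, each fused to Sup35N, were expressed in psi-negative yeast. Cells were induced with 100 μM copper sulfate for 24 hours and grown 7 days at 30°C on medium lacking adenine and uracil, and plasmid inserts before and after selection were Illumina-sequenced. Nucleation scores are DiMSum log enrichments of output over input reads, centred on the mode score of non-aggregating sequences, and sequences under 100 input reads were excluded.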

± gives the uncertainty stated by the source.

NFAVLYYIFVHIWLQCSNSE: the amyloid nucleation score was -0.969 ± 0.41.

Substance CIKVCALGCVDGVLVWERRW returned an amyloid nucleation score of 0.538 ± 0.27.

Substance MLNLVATVLWDWSVDCSWQV registered an amyloid nucleation score of 1.5 ± 0.11.

Take CSYVNRLWVDSSVGHEEDAG: the amyloid nucleation score result was “inactive”.

In turn, TFSLLGL registered an amyloid nucleation score of 4.1 ± 0.064.

AYYYVLRFRCLFTFYPQLTA: the amyloid nucleation score is -0.428 ± 0.39.

For STSFIL, the amyloid nucleation score is -0.718 ± 0.76.

RRLYF: the amyloid nucleation score is -0.561 ± 0.52.

Regarding TYTVRFENSRRTGDN, the amyloid nucleation score is -0.13 ± 0.41.

As to LFVDKMCERDFYFVSSHRYR, the amyloid nucleation score came out at 0.306 ± 0.8.

YMADSPLELDSSMTDYLCPV had an amyloid nucleation score of 4.18 ± 0.069.

YTYSYATLNMWFQLT displayed an amyloid nucleation score of 6.59 ± 0.033.

Take YYIAI: the amyloid nucleation score was -0.619 ± 1.

Turning to ICNALCLYSVNLLPGTLMGI, the amyloid nucleation score came out at 7.49 ± 0.027.

YLLFEWHYRHTYRCLVRVGA: the amyloid nucleation score is -0.166 ± 0.76.

The substance YHVRIGSGRAVSLHV displayed an amyloid nucleation score of 0.382 ± 0.5.

As for IILFEYCEF, the amyloid nucleation score is -0.613 ± 1.1.

On to RYFWRVSNIVWASAF, for which the amyloid nucleation score is -0.498 ± 0.44.

FMGFTISFFVRDFAPDLTKR: the amyloid nucleation score worked out at 3.1 ± 0.064.

Regarding YLSDNHYWCWSYESF, the amyloid nucleation score was -0.725 ± 0.41.

Take SFLRSNRGEVLPCNILNYVA: the amyloid nucleation score entry is “inactive”.

In the case of SMYLTETRLHCHDWSAAAWG, the amyloid nucleation score was found to be 0.663 ± 0.21.

Consider QLYLWHCGFLTTDISGSNSS, for which the amyloid nucleation score is -0.713 ± 0.63.

With VWYINSTNYLCPLISRVQVE, the amyloid nucleation score was -0.997 ± 0.36.

As for NNRWFRRGLGLSLDWTDCLS, the amyloid nucleation score is -0.492 ± 1.1.

As to RFRFYYCLDCSHL, the amyloid nucleation score entry was “inactive”.

On to WLWSSLISSMVVYSQ, for which the amyloid nucleation score was 2.53 ± 0.072.

Take VRGYRVGVWLRTGRVLVYRG: the amyloid nucleation score was -0.282 ± 0.76.

Regarding YFWGMFEYW, the amyloid nucleation score entry was “inactive”.

Take DYLYCSAQFRHMRVQSPGNA: the amyloid nucleation score was 0.885 ± 0.2.

On to VIMSGHSNRHWRSGLERMAG, for which the amyloid nucleation score came out at 0.823 ± 0.27.

With NSVTNNIRSWIPHLDKGYGG, the amyloid nucleation score was -0.487 ± 1.1.

As for NLMWTLNLF, the amyloid nucleation score stood at 8.253 ± 0.058.

With NLRWPIFNSWSSG, the amyloid nucleation score is -0.553 ± 0.27.

For YGRCNGLSGCQRGSCSREGG, the amyloid nucleation score was determined as 0.483 ± 0.46.

Consider LNRLCRRVCRSINDTIAIRE, for which the amyloid nucleation score was -0.157 ± 0.26.

As to TYVAFGGWLLEMPMLPTWSQ, the amyloid nucleation score amounted to 0.332 ± 0.37.

For CFIFKCKKCHLYPMDSVICQ, the amyloid nucleation score result is “inactive”.

As for GNNGRFSWVY, the amyloid nucleation score turned out to be 0.556 ± 0.37.

For the substance QVKMSSYFVLFFAGPPHVSI, the amyloid nucleation score is -1.13 ± 0.76.

The substance DYAIVSGVLLTQMQQLMCFV registered an amyloid nucleation score of 0.466 ± 0.33.

In the case of TPYGFSFRTRYMKQADLALS, the amyloid nucleation score was -0.315 ± 0.33.

WNMYNRIWFLGHKLLWGSPT: the amyloid nucleation score is -0.414 ± 0.76.

Regarding SPTGPMYRNLLSKKPYVR, the amyloid nucleation score was -0.909 ± 0.35.

As for LRDCLIRNPLKLRTKLTGHV, the amyloid nucleation score was found to be 0.608 ± 0.3.

The substance IFCLPIKKRVMYNHGLTIFG had an amyloid nucleation score of 0.461 ± 0.29.

With YVCGWINVLG, the amyloid nucleation score is -0.661 ± 0.63.

Consider VILRVIGIIMRDNKFSHDVR, for which the amyloid nucleation score result is “inactive”.

In the case of LCWCWKSWHNARRWTSWRMF, the amyloid nucleation score worked out at 0.13 ± 0.56.

As for WVFGLCSIPLHCVLHGIMMG, the amyloid nucleation score was determined as 2.92 ± 0.16.

Regarding RSGLYM, the amyloid nucleation score was -0.55 ± 0.64.

The substance RHAHWRVSSMDSVQFMWGE returned an amyloid nucleation score of 3.18 ± 0.12.

For LCIYFICSGLVRRLEWVG, the amyloid nucleation score was -0.871 ± 0.3.

As for VYGSCSVMLGNWCSSVFKVL, the amyloid nucleation score came to 0.174 ± 1.

Consider VIILRTPYVCSHYWSDPTVL, for which the amyloid nucleation score is -0.138 ± 0.56.

For the substance MSKYFWVSRGSSIITTW, the amyloid nucleation score is -0.539 ± 0.37.

The substance WSWLRICIS returned an amyloid nucleation score of 0.549 ± 0.32.

Substance FVLTSSMVLFWDGRNDARHG returned an amyloid nucleation score of 4.31 ± 0.08.

As to TVFFGLVCRGPVKKDM, the amyloid nucleation score was determined as 2.1 ± 0.17.

VVSHLGWTWGFKSMLGIRRS: the amyloid nucleation score was -0.759 ± 0.29.

Turning to GTVGGVGMFVLLVTRSKVFV, the amyloid nucleation score was determined as 1.3 ± 0.29.

Turning to FCLNATKAWFVLGVMYLDHW, the amyloid nucleation score was -0.805 ± 0.35.

As for EFSFHSWQLVTSCQEECCLD, the amyloid nucleation score entry was “inactive”.

Substance MCSPSQEVITYHSDFWNGQK yielded an amyloid nucleation score of 1.18 ± 0.68.

LSLVYRIGLNCNRELSSFDW: the amyloid nucleation score came out at 2.33 ± 0.1.

For KPNFIRLYRIKFNKLGLGIT, the amyloid nucleation score was -0.855 ± 1.

As for ESICAKWFMIDMNSTHWTGF, the amyloid nucleation score was -0.614 ± 0.41.

Turning to FTMGVRRLCYSWLRARFVKC, the amyloid nucleation score was -0.368 ± 1.

The substance SSYRRLTQSTLRVDRHRLFY returned an amyloid nucleation score of 0.732 ± 0.4.

The substance KFKVHQMQDVLSWVGYHDGS had an amyloid nucleation score of 4.13 ± 0.044.

As for IVGTDSQHVLVLQIFCVCLR, the amyloid nucleation score is -0.326 ± 1.1.

As for KCIIRTNKFFAFHVCKLTVN, the amyloid nucleation score is 0.498 ± 0.3.

The substance DFGREVVVIPLSEV had an amyloid nucleation score of 0.323 ± 0.53.

The substance ELCTKAINVMN came in with an amyloid nucleation score of 0.433 ± 0.48.

Regarding VRLVMI, the amyloid nucleation score worked out at 0.019 ± 1.1.

Take LFGYGQEDGQWCGDEFETVK: the amyloid nucleation score is 0.769 ± 0.26.

The substance LVVCEMY had an amyloid nucleation score of 0.348 ± 0.25.

As to WNNYVLGYEVNRMCLLDRSV, the amyloid nucleation score result is “inactive”.

On to YTLFYARNLSSMDVICN, for which the amyloid nucleation score was -1.09 ± 0.76.

Consider GSQVCILLAKGLWMVVFRIE, for which the amyloid nucleation score was -0.795 ± 0.55.

In turn, IARLASQSYLDMVADAEDTG came in with an amyloid nucleation score of 0.472 ± 0.49.

In the case of YFGMISERFRFPVYFQNSPR, the amyloid nucleation score was -1.14 ± 1.1.

With FYKREVIFVLRLFFTVKQGR, the amyloid nucleation score was -1.73 ± 1.1.

Regarding YIVDGVGCNCHTGSIVEMSL, the amyloid nucleation score is -0.618 ± 0.32.

On to CSWLLTH, for which the amyloid nucleation score was -0.461 ± 0.48.

For the substance VVSWCVEVNPRERAKVDMCR, the amyloid nucleation score is 4.25 ± 0.047.

LMDQSTFNRVKYVGHWVVSG gave an amyloid nucleation score of 1.74 ± 0.087.

In the case of LVHFNFMCVVARMFDMFF, the amyloid nucleation score entry is “inactive”.

Consider KKLYFWINAHNRELTLKTWV, for which the amyloid nucleation score came to 0.226 ± 0.54.

Consider YKWWCSW, for which the amyloid nucleation score was -0.62 ± 0.76.

As for GMLRGSK, the amyloid nucleation score is -0.359 ± 0.39.

As to HSYFRFTPSFLAARSKYLRH, the amyloid nucleation score was -0.498 ± 1.1.

For YSLCTTPMRAWVSYVFDVR, the amyloid nucleation score was -1.04 ± 0.64.

Substance YVATVWPLQSKRLSHRLMNG returned an amyloid nucleation score of 0.695 ± 0.43.

Regarding RFRTKLECPYMIS, the amyloid nucleation score worked out at 0.453 ± 0.35.

Turning to STALAFYP, the amyloid nucleation score entry was “inactive”.

Take VRSRKCLSVRLFSSVMGVSD: the amyloid nucleation score is -0.88 ± 0.54.

PNSSNPNPMRLVFRSMSFRL: the amyloid nucleation score was found to be 0.269 ± 0.64.

In the case of DWWLLYNCRSRMMGIKADPL, the amyloid nucleation score entry was “inactive”.

With VVRSHTLQNSALRCWSDG, the amyloid nucleation score amounted to 0.935 ± 0.39.

The substance LLYRYYSF gave an amyloid nucleation score of 3.72 ± 0.056.

Take IGTVAPVDLTAYSRERLFRM: the amyloid nucleation score result was “inactive”.
